# Data from patent US11890364B2, “Composition for prevention or treatment of hair loss” (GOOD T CELLS, INC., priority 2017, dated 2024).
# Ends that are not written are not given here.
# Target: T1, caspase-1 (Homo sapiens, UniProt P29466)
# T1 sequence (P29466 120-297 limits assumed): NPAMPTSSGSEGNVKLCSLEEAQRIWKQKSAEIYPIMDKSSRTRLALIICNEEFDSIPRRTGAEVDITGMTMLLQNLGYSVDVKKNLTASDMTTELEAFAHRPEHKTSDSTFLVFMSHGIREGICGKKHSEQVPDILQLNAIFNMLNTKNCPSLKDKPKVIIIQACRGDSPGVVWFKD
# T1 sequence (P29466 317-404 limits assumed): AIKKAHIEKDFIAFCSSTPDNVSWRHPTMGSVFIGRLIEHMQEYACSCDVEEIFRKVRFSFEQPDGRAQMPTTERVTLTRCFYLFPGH
# Assay: Caspase-1 treatment followed by HPLC analysis
# Format: biochemical
# Details: treated with caspase-1, HPLC analysis, FIG. 2
# Protocol: Compound E1 obtained in Example 1, Compound E7 obtained in Example 7, and finasteride were prepared. Then, these compounds were treated with caspase-1, and analyzed with high performance liquid chromatography (HPLC). The results are illustrated in FIGS. 2 and 3.
substance,measurement,value
"Compound E7: finasteride linked via caspase-1 cleavage site (YVAD) and linkers to CTP+cysteine peptide (SEQ ID NO: 6) (YGRRARRRRRRC; also: finasteride linked via caspase-1 cleavage site (YVAD) and linkers, attachment site not given here)",cleavage of the compound on treatment with caspase-1 (HPLC),"cleaved into two moieties, that is, finasteride and the protein transduction domain"
